Among the data in patent publication US20170082621A1 are ELISA signal compared to wild-type HP-NAP, inhibition of ROS production upon two hours of HP-NAP stimulation (H2DCF-DA fluorescence) and western-blot signal intensity compared to wild-type HP-NAP values, retold here.

Test [1] deals with HP-NAPY101H (Helicobacter pylori strain 26695) (UniProt P43313). As to the kind of experiment: recombinant HP-NAP-based ELISA, antibody X at 600 ng/ml.
The target of test [2] is HP-NAPE97GY101H (Helicobacter pylori strain 26695) (UniProt P43313). The description is as above.
Test [3] addresses Helicobacter pylori neutrophil-activating protein (HP-NAP) of H. pylori 26695 (Helicobacter pylori strain 26695) (UniProt P43313). The test is described as follows: cell-based or functional assay.
The target in test [4] is HP-NAPY101H (Helicobacter pylori strain 26695) (UniProt P43313). The test is described as follows: western blot of E. coli lysates, normalised by Ponceau S to wild-type HP-NAP.
The target in test [5] is HP-NAPE97GY101H (Helicobacter pylori strain 26695) (UniProt P43313). The test is described as above.

As for “antibody X, commercial IgG/M2 monoclonal antibody (Sigma, F-3165)”, the ELISA signal compared to wild-type HP-NAP in test [1] was 60%; in test [2], 33%. For the same substance, in test [3], the inhibition of ROS production upon two hours of HP-NAP stimulation (H2DCF-DA fluorescence) turned out to be 93.2%. The western-blot signal intensity compared to wild-type HP-NAP in test [4] worked out at 11%; in test [5], 9%.
